This series deals with T1, BMC08 (uncultured bacterium (metagenome)).
T1 chain: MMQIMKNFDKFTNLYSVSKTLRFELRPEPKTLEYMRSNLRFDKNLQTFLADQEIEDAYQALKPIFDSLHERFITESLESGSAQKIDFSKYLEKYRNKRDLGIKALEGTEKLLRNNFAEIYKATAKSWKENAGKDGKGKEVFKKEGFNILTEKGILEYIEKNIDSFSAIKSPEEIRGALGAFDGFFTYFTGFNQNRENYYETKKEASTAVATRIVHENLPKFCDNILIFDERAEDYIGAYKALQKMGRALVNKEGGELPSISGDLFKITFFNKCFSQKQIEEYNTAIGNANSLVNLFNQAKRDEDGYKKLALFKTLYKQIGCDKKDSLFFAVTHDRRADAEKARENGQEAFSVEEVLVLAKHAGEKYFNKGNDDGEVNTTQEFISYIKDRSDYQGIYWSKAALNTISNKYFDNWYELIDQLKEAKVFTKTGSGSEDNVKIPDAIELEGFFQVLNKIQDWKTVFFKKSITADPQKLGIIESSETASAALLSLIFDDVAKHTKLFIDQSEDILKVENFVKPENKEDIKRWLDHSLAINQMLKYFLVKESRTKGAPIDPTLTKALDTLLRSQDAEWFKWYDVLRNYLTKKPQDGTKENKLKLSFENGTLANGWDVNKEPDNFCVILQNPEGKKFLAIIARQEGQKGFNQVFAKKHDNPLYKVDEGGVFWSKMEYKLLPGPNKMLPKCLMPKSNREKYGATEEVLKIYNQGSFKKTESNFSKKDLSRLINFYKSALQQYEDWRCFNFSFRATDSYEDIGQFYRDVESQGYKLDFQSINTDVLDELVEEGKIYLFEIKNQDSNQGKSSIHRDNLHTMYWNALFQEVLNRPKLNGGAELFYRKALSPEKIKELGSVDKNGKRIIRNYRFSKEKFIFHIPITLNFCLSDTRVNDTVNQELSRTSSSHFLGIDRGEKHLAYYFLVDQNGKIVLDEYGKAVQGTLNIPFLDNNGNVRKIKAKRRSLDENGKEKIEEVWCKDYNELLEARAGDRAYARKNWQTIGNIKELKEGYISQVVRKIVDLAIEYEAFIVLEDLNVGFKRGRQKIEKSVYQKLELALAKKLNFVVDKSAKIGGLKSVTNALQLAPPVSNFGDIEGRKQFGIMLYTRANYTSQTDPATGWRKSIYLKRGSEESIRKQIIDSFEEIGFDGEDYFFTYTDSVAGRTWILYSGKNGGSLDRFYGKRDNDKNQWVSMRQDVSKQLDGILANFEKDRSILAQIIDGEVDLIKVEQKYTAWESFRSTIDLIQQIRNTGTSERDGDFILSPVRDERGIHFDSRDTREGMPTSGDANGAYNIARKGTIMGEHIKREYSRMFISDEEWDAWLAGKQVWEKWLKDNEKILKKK
Kind of series: cell_activity; PAM not stated; E. coli depletion, 30 C. In outline:
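E. coli carrying arabinose-induced (0.2%) BMC nuclease, grown at 30° C., made electrocompetent and electroporated with 50-100 ng plasmid carrying gRNA against malQ. Transformants plated on selective M9-glucose agar with kanamycin/ampicillin (± nourseothricin), and growth scored after 48 h at 30° C.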

B1: malQ gRNA (BMC stem-loop + 24 nt spacer) ; malQ protospacer (ssRNA ; dsDNA)
RNA: GAUUUCUACUAUUGUAGAUGUGGCGGUACGUUGAUGCAUCGCG
DNA 1: GTGGCGGTACGTTGATGCATCGCG
DNA 2: CGCGATGCATCAACGTACCGCCAC
Molecule B1 showed an activity of more than 99.9 % colony reduction.

The values above are taken from patent US20250277199, “NOVEL CRISPR-CAS NUCLEASES FROM METAGENOMES” (Brain Biotech AG, published 2025).
